Assay results taken from US20260125472A1 (HEFEI TG IMMUNOPHARMA, published 2026).
Changes are numbered by the printed parent chain.

T1: Trop2 on A-375-Trop2 melanoma cells (UniProt P09758 27-323, limits assumed)
T1 construct: whole, on cells
T1 sequence (looked up): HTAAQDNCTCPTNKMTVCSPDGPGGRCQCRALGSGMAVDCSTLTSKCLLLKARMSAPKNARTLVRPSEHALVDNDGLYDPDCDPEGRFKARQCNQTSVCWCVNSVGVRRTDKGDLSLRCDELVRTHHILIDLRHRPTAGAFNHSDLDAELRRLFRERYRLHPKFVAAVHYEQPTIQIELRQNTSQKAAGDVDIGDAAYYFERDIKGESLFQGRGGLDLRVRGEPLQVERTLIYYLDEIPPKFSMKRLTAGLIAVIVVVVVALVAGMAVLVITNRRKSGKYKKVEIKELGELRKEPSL

T2: Trop2 protein (UniProt P09758 27-274)
T2 construct: Bought recombinant protein; also called Trop2-Biotin protein (biotin-labelled, bridging ELISA)
T2 sequence (looked up): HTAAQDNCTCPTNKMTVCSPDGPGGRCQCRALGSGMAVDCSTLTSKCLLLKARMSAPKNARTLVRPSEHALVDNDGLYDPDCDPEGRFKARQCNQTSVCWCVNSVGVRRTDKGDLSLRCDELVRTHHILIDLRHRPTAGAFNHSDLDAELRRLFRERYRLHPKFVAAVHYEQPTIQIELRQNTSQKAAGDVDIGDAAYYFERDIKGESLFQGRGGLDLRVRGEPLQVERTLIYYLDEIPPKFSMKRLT

B1: Cross3×Trop2 (bispecific antibody)
scFv: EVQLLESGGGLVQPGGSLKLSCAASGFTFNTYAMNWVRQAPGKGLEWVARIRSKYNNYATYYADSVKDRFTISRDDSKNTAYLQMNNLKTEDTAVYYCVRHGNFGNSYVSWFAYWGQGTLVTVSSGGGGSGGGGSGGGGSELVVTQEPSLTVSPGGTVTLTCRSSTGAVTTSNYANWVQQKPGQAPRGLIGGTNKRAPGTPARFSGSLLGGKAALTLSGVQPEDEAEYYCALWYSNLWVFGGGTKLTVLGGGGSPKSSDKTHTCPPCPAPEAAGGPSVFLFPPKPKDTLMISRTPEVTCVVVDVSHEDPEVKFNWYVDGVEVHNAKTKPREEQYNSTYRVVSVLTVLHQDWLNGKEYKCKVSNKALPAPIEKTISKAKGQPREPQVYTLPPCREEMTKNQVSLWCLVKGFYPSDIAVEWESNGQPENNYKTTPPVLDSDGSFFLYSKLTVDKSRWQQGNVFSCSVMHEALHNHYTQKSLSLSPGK
heavy: QVQLQQSGSELKKPGASVKVSCKASGYTFTNYGMNWVKQAPGQGLKWMGWINTYTGEPTYTDDFKGRFAFSLDTSVSTAYLQISSLKADDTAVYFCARGGFGSSYWYFDVWGQGSLVTVSSASTKGPSVFPLAPSSKSTSGGTAALGCLVKDYFPEPVTVSWNSGALTSGVHTFPAVLQSSGLYSLSSVVTVPSSSLGTQTYICNVNHKPSNTKVDKKVEPKSSDKTHTCPPCPAPEAAGGPSVFLFPPKPKDTLMISRTPEVTCVVVDVSHEDPEVKFNWYVDGVEVHNAKTKPREEQYNSTYRVVSVLTVLHQDWLNGKEYKCKVSNKALPAPIEKTISKAKGQPREPQVCTLPPSREEMTKNQVSLSCAVKGFYPSDIAVEWESNGQPENNYKTTPPVLDSDGSFFLVSKLTVDKSRWQQGNVFSCSVMHEALHNHYTQKSLSLSPGK
light: DIQLTQSPSSLSASVGDRVSITCKASQDVSIAVAWYQQKPGKAPKLLIYSASYRYTGVPDRFSGSGSGTDFTLTISSLQPEDFAVYYCQQHYITPLTFGAGTKVEIKRTVAAPSVFIFPPSDEQLKSGTASVVCLLNNFYPREAKVQWKVDNALQSGNSQESVTEQDSKDSTYSLSSTLTLSKADYEKHKVYACEVTHQGLSSPVTKSFNRGEC
notes: also called parental Cross3×Trop2 bispecific antibody
B2: Cross326×Trop2 (bispecific antibody)
scFv: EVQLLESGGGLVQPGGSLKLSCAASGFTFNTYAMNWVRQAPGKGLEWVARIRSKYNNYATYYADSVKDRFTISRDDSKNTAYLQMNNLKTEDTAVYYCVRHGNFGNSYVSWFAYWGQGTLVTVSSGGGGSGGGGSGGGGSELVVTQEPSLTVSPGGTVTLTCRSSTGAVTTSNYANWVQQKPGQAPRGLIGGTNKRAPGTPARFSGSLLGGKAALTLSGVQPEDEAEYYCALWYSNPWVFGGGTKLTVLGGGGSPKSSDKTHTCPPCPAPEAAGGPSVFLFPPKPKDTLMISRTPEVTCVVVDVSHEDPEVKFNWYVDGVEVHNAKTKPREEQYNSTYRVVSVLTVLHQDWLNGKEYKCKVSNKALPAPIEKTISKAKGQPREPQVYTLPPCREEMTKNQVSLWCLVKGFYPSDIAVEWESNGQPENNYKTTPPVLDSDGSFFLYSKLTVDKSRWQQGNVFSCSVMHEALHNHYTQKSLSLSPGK
heavy: B1 heavy
light: B1 light
B3: Cross318×Trop2 (bispecific antibody)
scFv: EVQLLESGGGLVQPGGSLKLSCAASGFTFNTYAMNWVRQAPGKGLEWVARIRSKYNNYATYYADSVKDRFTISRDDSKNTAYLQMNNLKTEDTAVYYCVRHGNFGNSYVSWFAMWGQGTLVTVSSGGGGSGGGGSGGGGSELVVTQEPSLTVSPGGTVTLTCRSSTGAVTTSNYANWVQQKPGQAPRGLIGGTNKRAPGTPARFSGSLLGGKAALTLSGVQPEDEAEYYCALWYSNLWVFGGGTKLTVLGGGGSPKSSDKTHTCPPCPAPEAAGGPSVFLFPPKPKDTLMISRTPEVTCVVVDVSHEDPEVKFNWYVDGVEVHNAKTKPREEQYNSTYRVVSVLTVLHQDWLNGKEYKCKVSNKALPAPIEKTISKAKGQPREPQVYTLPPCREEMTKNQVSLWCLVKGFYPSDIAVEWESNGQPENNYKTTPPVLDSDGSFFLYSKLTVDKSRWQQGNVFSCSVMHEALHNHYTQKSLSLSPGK
heavy: B1 heavy
light: B1 light
B4: Cross303×Trop2 (bispecific antibody)
scFv: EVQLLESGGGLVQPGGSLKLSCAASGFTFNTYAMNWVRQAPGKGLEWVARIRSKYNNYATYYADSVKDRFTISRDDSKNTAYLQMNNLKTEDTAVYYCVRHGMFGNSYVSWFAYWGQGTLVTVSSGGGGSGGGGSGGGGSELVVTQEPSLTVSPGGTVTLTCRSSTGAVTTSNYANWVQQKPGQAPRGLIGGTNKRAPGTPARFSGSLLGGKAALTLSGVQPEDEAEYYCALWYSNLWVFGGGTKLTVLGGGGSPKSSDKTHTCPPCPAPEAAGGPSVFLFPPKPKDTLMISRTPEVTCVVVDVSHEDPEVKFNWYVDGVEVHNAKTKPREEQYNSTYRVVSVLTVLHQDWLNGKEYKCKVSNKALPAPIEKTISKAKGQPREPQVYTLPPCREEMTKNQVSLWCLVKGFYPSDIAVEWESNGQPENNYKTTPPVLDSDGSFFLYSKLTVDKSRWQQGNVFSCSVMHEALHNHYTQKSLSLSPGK
heavy: B1 heavy
light: B1 light
B5: Cross310×Trop2 (bispecific antibody)
scFv: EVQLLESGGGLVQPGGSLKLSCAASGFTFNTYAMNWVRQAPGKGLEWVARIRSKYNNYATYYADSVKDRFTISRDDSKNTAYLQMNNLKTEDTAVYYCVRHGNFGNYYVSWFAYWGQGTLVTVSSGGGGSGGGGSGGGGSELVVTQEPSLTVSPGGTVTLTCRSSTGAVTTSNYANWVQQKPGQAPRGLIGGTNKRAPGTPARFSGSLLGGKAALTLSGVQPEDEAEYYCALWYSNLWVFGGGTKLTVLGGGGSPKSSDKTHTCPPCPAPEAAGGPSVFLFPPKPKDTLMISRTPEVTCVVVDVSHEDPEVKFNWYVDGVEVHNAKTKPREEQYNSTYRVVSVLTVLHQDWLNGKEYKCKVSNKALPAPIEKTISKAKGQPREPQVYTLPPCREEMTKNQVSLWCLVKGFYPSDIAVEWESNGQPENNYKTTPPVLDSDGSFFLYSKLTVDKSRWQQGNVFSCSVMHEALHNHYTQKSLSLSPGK
heavy: B1 heavy
light: B1 light
B6: Cross316×Trop2 (bispecific antibody)
scFv: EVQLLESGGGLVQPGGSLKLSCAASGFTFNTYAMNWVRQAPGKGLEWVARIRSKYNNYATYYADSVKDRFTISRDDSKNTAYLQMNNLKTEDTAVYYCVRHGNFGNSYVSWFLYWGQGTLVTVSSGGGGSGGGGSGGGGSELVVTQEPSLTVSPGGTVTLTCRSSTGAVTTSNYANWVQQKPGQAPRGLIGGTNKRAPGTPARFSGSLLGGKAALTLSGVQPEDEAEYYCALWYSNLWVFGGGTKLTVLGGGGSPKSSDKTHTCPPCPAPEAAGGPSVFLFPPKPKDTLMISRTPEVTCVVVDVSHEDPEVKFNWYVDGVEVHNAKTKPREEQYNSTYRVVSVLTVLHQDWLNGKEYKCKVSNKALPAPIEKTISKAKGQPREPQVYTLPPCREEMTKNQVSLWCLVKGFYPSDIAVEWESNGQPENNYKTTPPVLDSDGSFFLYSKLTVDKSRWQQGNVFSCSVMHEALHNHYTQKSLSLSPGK
heavy: B1 heavy
light: B1 light
B7: Cross325×Trop2 (bispecific antibody)
scFv: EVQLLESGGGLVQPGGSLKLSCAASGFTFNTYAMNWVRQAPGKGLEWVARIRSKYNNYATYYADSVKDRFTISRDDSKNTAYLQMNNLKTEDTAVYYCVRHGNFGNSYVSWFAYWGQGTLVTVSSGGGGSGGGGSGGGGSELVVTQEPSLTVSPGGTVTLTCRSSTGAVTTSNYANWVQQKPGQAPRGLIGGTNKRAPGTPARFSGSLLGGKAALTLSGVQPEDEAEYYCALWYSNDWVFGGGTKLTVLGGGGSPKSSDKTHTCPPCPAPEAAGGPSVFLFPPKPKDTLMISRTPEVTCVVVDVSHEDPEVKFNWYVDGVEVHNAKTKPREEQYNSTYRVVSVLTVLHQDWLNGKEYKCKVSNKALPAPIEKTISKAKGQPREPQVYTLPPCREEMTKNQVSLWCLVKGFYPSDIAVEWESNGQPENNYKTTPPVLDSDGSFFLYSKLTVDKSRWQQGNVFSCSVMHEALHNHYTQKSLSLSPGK
heavy: B1 heavy
light: B1 light
B8: Cross323×Trop2 (bispecific antibody)
scFv: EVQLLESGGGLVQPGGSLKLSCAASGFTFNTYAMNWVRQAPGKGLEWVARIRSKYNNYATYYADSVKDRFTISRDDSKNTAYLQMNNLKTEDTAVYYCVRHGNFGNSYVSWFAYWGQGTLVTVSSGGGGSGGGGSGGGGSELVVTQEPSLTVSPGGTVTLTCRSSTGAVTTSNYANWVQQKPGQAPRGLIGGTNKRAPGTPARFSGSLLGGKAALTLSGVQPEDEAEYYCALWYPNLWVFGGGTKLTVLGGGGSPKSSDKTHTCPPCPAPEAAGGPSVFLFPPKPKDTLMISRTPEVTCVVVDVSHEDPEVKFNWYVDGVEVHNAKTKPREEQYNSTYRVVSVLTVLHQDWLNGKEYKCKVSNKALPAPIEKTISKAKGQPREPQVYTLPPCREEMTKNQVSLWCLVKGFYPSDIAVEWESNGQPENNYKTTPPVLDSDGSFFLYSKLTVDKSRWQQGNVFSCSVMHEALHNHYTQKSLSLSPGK
heavy: B1 heavy
light: B1 light
B9: Cross307×Trop2 (bispecific antibody)
scFv: not shown
heavy: B1 heavy
light: B1 light
B10: Cross308×Trop2 (bispecific antibody)
scFv: not shown
heavy: B1 heavy
light: B1 light
B11: Cross312×Trop2 (bispecific antibody)
scFv: not shown
heavy: B1 heavy
light: B1 light
B12: Cross314×Trop2 (bispecific antibody)
scFv: not shown
heavy: B1 heavy
light: B1 light
B13: Cross313×Trop2 (bispecific antibody)
scFv: not shown
heavy: B1 heavy
light: B1 light
B14: Cross309×Trop2 (bispecific antibody)
scFv: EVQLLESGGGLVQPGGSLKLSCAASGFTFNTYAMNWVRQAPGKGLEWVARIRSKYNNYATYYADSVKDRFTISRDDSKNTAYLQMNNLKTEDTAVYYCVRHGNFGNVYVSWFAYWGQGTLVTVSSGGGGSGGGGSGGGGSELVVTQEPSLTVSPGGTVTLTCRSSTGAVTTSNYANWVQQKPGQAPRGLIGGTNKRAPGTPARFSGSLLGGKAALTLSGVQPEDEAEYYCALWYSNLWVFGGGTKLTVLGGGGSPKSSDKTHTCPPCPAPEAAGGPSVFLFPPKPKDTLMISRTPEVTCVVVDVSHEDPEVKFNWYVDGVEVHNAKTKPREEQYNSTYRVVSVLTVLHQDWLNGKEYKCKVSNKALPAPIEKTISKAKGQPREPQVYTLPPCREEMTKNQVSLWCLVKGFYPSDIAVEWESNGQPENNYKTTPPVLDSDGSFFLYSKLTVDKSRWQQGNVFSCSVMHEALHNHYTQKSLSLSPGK
heavy: B1 heavy
light: B1 light
B15: Cross3ZH07 (antibody, human IgG1, kappa, V domains shown)
VH: EVQLLESGGGLVQPGGSLKLSCAASGFTFNTYAMNWVRQAPGKGLEWVARIRSKYNNYATYYADSVKDRFTISRDDSKNTAYLQMNNLKTEDTAVYYCVRHGMFGNSYVSWFAYWGQGTLVTVSS
VL: ELVVTQEPSLTVSPGGTVTLTCRSSTGAVTTSNYANWVQQKPGQAPRGLIGGTNKRAPGTPARFSGSLLGGKAALTLSGVQPEDEAEYYCALWYPNPWVFGGGTKLTVLR
B16: Cross3ZH09 (antibody, human IgG1, kappa, V domains shown)
VH: B15 VH with M103N, A113L
VL: B15 VL
B17: Cross3ZH23 (antibody, human IgG1, kappa, V domains shown)
VH: B15 VH with M103N, S107D
VL: B15 VL with P95S
B18: Cross3ZH16 (antibody, human IgG1, kappa, V domains shown)
VH: B15 VH with M103N
VL: B15 VL with P97D

Target: T1, Trop2 on A-375-Trop2 melanoma cells
Assay: flow cytometry, A-375-Trop2 cells, MFI [panel B]
Experimental: (2) The tumor cells were diluted to 2×10⁶/ml with PBS and added to a 1.5 ml EP tube at a volume of 100 μl/tube, and goat serum was added thereto at 10 μl/tube. The cells were blocked at 4° C. for 30 min. The serially diluted bispecific antibodies, Cross3×Trop2, Cross303×Trop2, Cross307×Trop2, Cross308×Trop2, Cross309×Trop2, Cross310×Trop2, Cross311×Trop2, Cross312×Trop2, Cross313×Trop2, Cross314×Trop2, Cross316×Trop2, Cross317×Trop2, Cross318×Trop2, Cross323×Trop2, Cross325×Trop2, Cross326×Trop2, and Cross3×PDL1, Cross303×PDL1, Cross307×PDL1, Cross308×PDL1, Cross309×PDL1, Cross310×PDL1, Cross311×PDL1, Cross312×PDL1, Cross313×PDL1, Cross314×PDL1, Cross316×PDL1, Cross317×PDL1, Cross318×PDL1, Cross323×PDL1, Cross325×PDL1, Cross326×PDL1, and control hIgG1LALA (purchased from Bio-Tech) were added and incubated at 4° C. for 30 min. 1 ml of PBS was added to the EP tube, followed by centrifugation at 3500 rpm for 5 min at 4° C. The supernatant was discarded, and the cells were washed again with PBS. After centrifugation, the supernatant was completely discarded, and the cells were resuspended with PBS at 100 μl/tube. Alexa-647-labeled goat anti-human IgG secondary antibody (purchased from Jackson lab) was added at 1 μl/tube and incubated at 4° C. in the dark for 30 min. The cells were washed twice with PBS, and the supernatant was completely discarded after centrifugation. The cells were resuspended with PBS at 200 μl/tube and assay was performed using the flow cytometry.

Binder | EC50 (read off the curve) [µg/mL]
B1 | ~1
B2 | ~1
B3 | ~1
B4 | ~1
B5 | ~1
B6 | ~1
B7 | ~1
B8 | ~1
B9 | ~1
B10 | ~1
B11 | ~1
B12 | ~1
B13 | ~1
B14 | ~1

Target: T2, Trop2 protein
Assay: ELISA, coated Trop2 protein, OD450
Excerpt: In this example, the binding properties of the CD3×Trop2 and CD3×PDL1 bispecific antibody (the production method and the amino acid sequences of the heavy and light chains were shown in Example 1) were detected by using ELISA. The CD3E&D, Trop2, or PDL1 protein was coated onto 96-well plates by inventors, and the strength of the signal after the addition of the antibody was used to determine the binding properties of the antibody and the corresponding protein.
(2) Trop2 protein (purchased from Acro) was diluted to 2 μg/ml with PBS buffer, added to a 96-well plate at a volume of 100 μL/well, and placed at 4° C. overnight. The PBS buffer in the 96-well plate was aspirated, and the plate was washed 6 times with PBST (pH 7.2 PBS containing 0.1% Tween 20) buffer. Then, 200 μL/well PBS/10% BSA was added and incubated at 37° C. for 2 h for blocking. The blocking solution was removed, and the plate was washed six times with PBST. Then, the to-be-tested bispecific antibodies, Cross3×Trop2, Cross303×Trop2, Cross307×Trop2, Cross308×Trop2, Cross309×Trop2, Cross310×Trop2, Cross311×Trop2, Cross312×Trop2, Cross313×Trop2, Cross314×Trop2, Cross316×Trop2, Cross317×Trop2, Cross318×Trop2, Cross323×Trop2, Cross325×Trop2, Cross326×Trop2, and control IgG1LALA (purchased from Bio-Tech), serially diluted with PBST/0.05% BSA, were added at 100 μL/well and incubated at 37° C. for 1 h. The reaction system was removed, and the plate was washed 6 times with PBST. Then, HRP (horseradish peroxidase)-labeled anti-human secondary antibody (Fab specific) (purchased from Sigma) diluted with PBST/0.05% BSA at 100 μL/well. After the plate was washed six times with PBST, TMB (tetramethylbenzidine) was added at 80 μL/well, and incubated at room temperature for 3 min. 4 M sulfuric acid was added at 80 μL/well to terminate the reaction. The absorbance was read at 450 nm using a microplate reader.

Binder | EC50 (read off the curve) [µg/mL]
B1 | ~0.008
B2 | ~0.008
B3 | ~0.02
B4 | ~0.008
B5 | ~0.008
B6 | ~0.008
B7 | ~0.008
B8 | ~0.008
B9 | ~0.008
B10 | ~0.008
B11 | ~0.008
B12 | ~0.008
B13 | ~0.008
B14 | ~0.008

Target: T3, CD3E&D protein (UniProt P04234 22-105)
T3 construct: Purchased from Acro; also called CD3 E&D antigens; CD3E&D antigen protein
T3 sequence (chain, as listed by the source limits assumed, chain 1 of 2): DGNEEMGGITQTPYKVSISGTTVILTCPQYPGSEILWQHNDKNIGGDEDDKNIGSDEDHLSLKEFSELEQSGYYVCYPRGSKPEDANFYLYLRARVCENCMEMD
T3 sequence (P04234 22-105 limits assumed, chain 2 of 2): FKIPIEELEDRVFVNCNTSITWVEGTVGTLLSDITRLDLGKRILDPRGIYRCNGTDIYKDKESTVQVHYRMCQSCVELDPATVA
Assay: SPR (Biacore 8K), antibody on CM5 chip, CD3 E&D antigen as analyte
Parameters: Fold change: reference not given here
Experimental: In a Biacore 8K (Cytiva) system, the antibody was diluted to 10 μg/mL in HBS-EP running buffer and coupled to a CM5 chip (Cytiva) at a flow rate of 10 μL/min.

Binder | Fold change | Kd [nM] | koff [s⁻¹] | kon [M⁻¹ s⁻¹]
B15 | 69.1 | 11.4 | 0.00138 | 121000
B16 | 636 | 105 | 0.00296 | 28100
B17 | 4090 | 675 | 0.055 | 81500
B18 | 105 | 17.3 | 0.0243 | 1.41e+06
